# Assay results from patent publication US20180155451A1 (published 2018).
# Substitutions are numbered along the chain they refer to. In names and notes the source's numbering stands.
# T1: FcγRIIa type H extracellular domain with C-terminal His tag (human, UniProt P12318 34-217)
# T1 construct: extracellular domain; also called FcgRIIa H; FcγRIIa H
# T1 sequence (looked up): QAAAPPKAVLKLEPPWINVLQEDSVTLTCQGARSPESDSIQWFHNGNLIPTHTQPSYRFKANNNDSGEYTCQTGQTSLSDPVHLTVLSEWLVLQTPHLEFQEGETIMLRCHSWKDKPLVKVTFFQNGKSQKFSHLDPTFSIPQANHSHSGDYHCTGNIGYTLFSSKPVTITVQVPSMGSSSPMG
# T2: FcγRIIa type R extracellular domain with C-terminal His tag (human, UniProt P12318 34-217)
# T2 construct: extracellular domain; also called FcgRIIa R; FcγRIIa R
# T2 sequence (looked up): T1 sequence (looked up) with H134R
# T3: FcγRIIb extracellular domain with C-terminal His tag (human, UniProt P31994 43-217)
# T3 construct: extracellular domain; also called FcgRIIb
# T3 sequence (looked up): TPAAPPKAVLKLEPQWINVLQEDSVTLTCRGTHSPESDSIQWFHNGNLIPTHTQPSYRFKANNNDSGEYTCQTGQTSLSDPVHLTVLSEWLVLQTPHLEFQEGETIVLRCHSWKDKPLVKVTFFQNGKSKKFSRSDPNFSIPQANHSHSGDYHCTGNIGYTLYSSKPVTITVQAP
# T4: FcgRIIa R extracellular domain with C-terminal His tag (human, UniProt P12318 34-217)
# T4 construct: extracellular domain; also called FcγRIIa R; FcγRIIa type R; not shown: His tag attached to the C terminus
# T4 sequence (looked up): T1 sequence (looked up) with H134R
# T5: FcgRIIa H extracellular domain with C-terminal His tag (human, UniProt P12318 34-217)
# T5 construct: extracellular domain; also called FcγRIIa H; FcγRIIa type H; not shown: His tag attached to the C terminus
# T5 sequence (looked up): T1 sequence (looked up)
# B1: GpH7-Kn045/GpH7-Hl048/GpL16-k0 (antibody, human IgG1, kappa)
# heavy 1: QVQLVQSGAEVKKPGASVTVSCKASGYTFTDYEMHWIRQPPGEGLEWIGAIDPKTGDTAYSESFQDRVTLTADKSTSTAYMELSSLTSEDTAVYYCTRFYSYTYWGQGTLVTVSSASTKGPSVFPLAPSSKSTSGGTAALGCLVKDYFPEPVTVSWNSGALTSGVHTFPAVLQSSGLYSLSSVVTVPSSSLGTQTYICNVNHKPSNTKVDKKVEPKSCDKTHTCPPCPAPEYYAGPSVFLFPPKPKDTLMISRTPEVTCVVVDVSDEDPEVKFNWYVDGVEVHNAKTKPREEQYNATYRVVSVLTVLHQDWLNGKEYKCKVSNKALPAPIEKTISKAKGQPREPQVCTLPPSRDELTKNQVSLWCLVKGFYPSDIAVEWESNGQPENNYKTTPPVLDSDGSFFLYSKLTVDKSRWQQGNVFSCSVMHEALHNHYTQKSLSLSP
# heavy 2: QVQLVQSGAEVKKPGASVTVSCKASGYTFTDYEMHWIRQPPGEGLEWIGAIDPKTGDTAYSESFQDRVTLTADKSTSTAYMELSSLTSEDTAVYYCTRFYSYTYWGQGTLVTVSSASTKGPSVFPLAPSSKSTSGGTAALGCLVKDYFPEPVTVSWNSGALTSGVHTFPAVLQSSGLYSLSSVVTVPSSSLGTQTYICNVNHKPSNTKVDKKVEPKSCDKTHTCPPCPAPELLAGPDVFLFPPKPKDTLMISRTPEVTCVVVDVSHEDPEVKFNWYVDGVEVHNAKTKPREEQYNSTYRVVSVLTVLHQDWLNGKEYKCKVSNKALPKPEEKTISKAKGQPREPQVYTLPPSRCELTKNQVSLSCAVKGFYPSDIAVEWESNGQPENNYKTTPPVLDSDGSFFLVSKLTVDKSRWQQGNVFSCSVMHEALHNHYTQKSLSLSP
# light: DIVMTQSPLSLPVTPGEPASISCQASESLVHSNRNTYLHWYLQKPGQSPQLLIYKVSNRFSGVPDRFSGSGSGTDFTLKISRVEAEDVGVYYCSQNTHVPPTFGQGTKVEIERTVAAPSVFIFPPSDEQLKSGTASVVCLLNNFYPREAKVQWKVDNALQSGNSQESVTEQDSKDSTYSLSSTLTLSKADYEKHKVYACEVTHQGLSSPVTKSFNRGEC
# notes: Heterodimerized anti-glypican-3 IgG1; also called Kn045/Hl048
# B2: GpH7-Kn056/GpH7-Hl055/GpL16-k0 (antibody, human IgG1, kappa)
# heavy 1: B1 heavy 1 with Q293L
# heavy 2: B1 heavy 2 with Q293L, K328M
# light: B1 light
# notes: Heterodimerized anti-glypican-3 IgG1; also called Kn056/Hl055
# B3: GpH7-Kn045/GpH7-Hl055/GpL16-k0 (antibody, human IgG1, kappa)
# heavy 1: B1 heavy 1
# heavy 2: B1 heavy 2 with Q293L, K328M
# light: B1 light
# notes: Heterodimerized anti-glypican-3 IgG1; also called Kn045/Hl055
# B4: GpH7-Kn033/GpH7-Hl033/GpL16-k0 (antibody, human IgG1, kappa)
# heavy 1: not shown
# heavy 2: not shown
# light: B1 light
# notes: Anti-glypican-3 IgG1 with knobs-into-holes only (knob Y349C/T366W; hole D356C/T366S/L368A/Y407V); also called Kn033/Hl033
# B5: GpH7-Kn032/GpH7-Hl032/GpL16-k0 (antibody, human IgG1, kappa)
# heavy 1: B1 heavy 2 with A234G, K328L, Y347C, C354D, S364W, A366L, V405Y
# heavy 2: B1 heavy 2 with A234G, K328L
# light: B1 light
# notes: S239D/A330L/I332E in both H chains (called homodimerized); also called Kn032/Hl032
# B6: GpH7-Kn045/GpH7-Hl048/GpL16-k0 (antibody, human IgG1, kappa)
# heavy 1: B1 heavy 1
# heavy 2: B1 heavy 2
# light: B1 light
# notes: Knob chain L234Y/L235Y/G236A/H268D/S298A; hole chain G236A/S239D/A330K/I332E; also called Kn045/Hl048
# B7: GpH7-Kn045/GpH7-Hl055/GpL16-k0 (antibody, human IgG1, kappa)
# heavy 1: B1 heavy 1
# heavy 2: B1 heavy 2 with Q293L, K328M
# light: B1 light
# notes: Knob chain L234Y/L235Y/G236A/H268D/S298A; hole chain G236A/S239D/Q295L/A330M/I332E; also called Kn045/Hl055
# B8: GpH7-Kn037/GpH7-Hl036/GpL16-k0 (antibody, human IgG1, kappa)
# heavy 1: B1 heavy 2 with K328A, Y347C, C354D, S364W, A366L, V405Y
# heavy 2: B1 heavy 2 with K328A
# light: B1 light
# notes: G236A/S239D/I332E in both H chains (called homodimerized); also called Kn037/Hl036
# B9: GpH7-Kn056/GpH7-Hl055/GpL16-k0 (antibody, human IgG1, kappa)
# heavy 1: B1 heavy 1 with Q293L
# heavy 2: B1 heavy 2 with Q293L, K328M
# light: B1 light
# notes: Knob chain L234Y/L235Y/G236A/H268D/Q295L/S298A; hole chain G236A/S239D/Q295L/A330M/I332E; also called Kn056/Hl055
# Target: T1, FcγRIIa type H extracellular domain …
# Test: SPR (Biacore T100), antibody captured on antigen-peptide chip, FcγR analyte, 1:1 Langmuir fit
# Method: (§1) These antibodies were assessed for the binding activity to each FcγR according to the method described in Reference Example 2.
# (§2) Analysis of interaction between objective antibody and the FcγR was carried out using Biacore T100 (GE Healthcare). HBS-EP+ (GE Healthcare) was used as the running buffer, and the measurement temperature was set to 25° C. Chips produced by immobilizing the antigen peptide by the amine coupling method to a Series S Sencor Chip CM5 (GE Healthcare), or alternatively, chips produced by allowing preliminarily biotinylated antigen peptides to interact with and immobilize onto a Series S Sensor Chip SA (certified) (GE Healthcare) were used. Antibodies of interest were captured onto an antigen peptide-immobilized chip, and allowed to interact to each FcγR diluted with running buffer. To regenerate and repeatedly use the chip, the antibodies captured on the chip were washed off by reacting 10 mM glycine-HCl, pH 1.5.
# (§3) The FcγR-binding activity of each antibody was assessed primarily using as an indicator the FcγR-binding activity and dissociation constant for FcγR.
row,Kd [nM],Binder
1,11,B1
2,30,B2
3,29,B3

# Target: T2, FcγRIIa type R extracellular domain …
# Test: as above
# Method: as §1, §2, §3
row,Kd [nM],Binder
1,4.8,B1
2,17,B2
3,13,B3

# Target: T6, FcγRIIIa type F extracellular domain with C-terminal His tag (human, UniProt P08637 17-208)
# T6 construct: extracellular domain; also called FcgRIIIa F; FcγRIIIa F
# Test: as above
# Method: as §1, §2, §3
# T6 sequence (P08637 17-208): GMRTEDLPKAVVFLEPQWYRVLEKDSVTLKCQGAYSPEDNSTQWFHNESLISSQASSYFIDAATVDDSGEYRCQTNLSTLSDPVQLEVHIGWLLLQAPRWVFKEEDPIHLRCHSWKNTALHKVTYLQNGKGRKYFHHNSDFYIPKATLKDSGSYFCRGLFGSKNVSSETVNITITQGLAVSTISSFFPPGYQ
row,Kd [nM],Binder
1,3.7,B1
2,1.4,B2
3,1.6,B3

# Target: T7, FcγRIIIa type V extracellular domain with C-terminal His tag (human, UniProt P08637 17-208)
# T7 construct: extracellular domain; also called FcgRIIIa V; FcγRIIIa V
# Test: as above
# Method: as §1, §2, §3
# T7 sequence (P08637 17-208 F176V): as the sequence (P08637 17-208) above, with F160V counted along it
row,Kd [nM],Binder
1,1.3,B1
2,0.66,B2
3,0.72,B3

# Target: T8, FcγRIa extracellular domain with C-terminal His tag (human, UniProt P12314 16-292)
# T8 construct: extracellular domain; also called FcgRIa; FcgRI
# Test: as above
# Method: as §1, §2, §3
# T8 sequence (P12314 16-292): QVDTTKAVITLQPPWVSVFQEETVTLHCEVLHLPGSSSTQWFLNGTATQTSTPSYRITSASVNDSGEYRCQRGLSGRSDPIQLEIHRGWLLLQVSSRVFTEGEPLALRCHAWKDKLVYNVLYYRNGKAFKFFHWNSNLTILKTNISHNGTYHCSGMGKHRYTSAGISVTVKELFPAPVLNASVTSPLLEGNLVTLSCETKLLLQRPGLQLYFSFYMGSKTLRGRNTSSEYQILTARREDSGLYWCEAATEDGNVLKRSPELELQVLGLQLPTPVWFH
row,Kd [nM],Binder
1,0.019,B1
2,0.023,B2
3,0.019,B3

# Target: T3, FcγRIIb extracellular domain with …
# Test: as above
# Method: as §1, §2, §3
row,Kd [nM],Binder
1,110,B1
2,260,B2
3,240,B3

# Target: T4, FcgRIIa R extracellular domain with …
# Test: ratio of SPR (Biacore) KDs, FcγRIIb as reference; antibody captured on chip, FcγR as analyte
# Method: as §1, §2, §3
row,A/I ratio (KD for FcγRIIb / KD for FcγRIIa R),Binder
1,4.9,B4
2,1.8,B5
3,22,B6
4,18,B7
5,13,B8
6,16,B9

# Target: T5, FcgRIIa H extracellular domain with …
# Test: as above
# Method: as §1, §2, §3
row,A/I ratio (KD for FcγRIIb / KD for FcγRIIa H),Binder
1,6.2,B4
2,0.93,B5
3,9.5,B6
4,8.3,B7
5,8.6,B8
6,8.7,B9

# Target: T1, FcγRIIa type H extracellular domain …
# Test: SPR (Biacore T100), ratio of KD values
# Method: as §1, §2, §3
row,KD ratio,Binder
1,52 fold (KD of GpH7-Kn033/GpH7-Hl033/GpL16-k0 divided by KD of this antibody),B1
2,20 fold (KD of GpH7-Kn033/GpH7-Hl033/GpL16-k0 divided by KD of this antibody),B2
3,21 fold (KD of GpH7-Kn033/GpH7-Hl033/GpL16-k0 divided by KD of this antibody),B3

# Target: T2, FcγRIIa type R extracellular domain …
# Test: SPR (Biacore T100), ratio of KD values
# Method: as §1, §2, §3
row,KD ratio,Binder
1,154 fold (KD of GpH7-Kn033/GpH7-Hl033/GpL16-k0 divided by KD of this antibody),B1
2,44 fold (KD of GpH7-Kn033/GpH7-Hl033/GpL16-k0 divided by KD of this antibody),B2
3,56 fold (KD of GpH7-Kn033/GpH7-Hl033/GpL16-k0 divided by KD of this antibody),B3

# Target: T6, FcγRIIIa type F extracellular domain …
# Test: SPR (Biacore T100), ratio of KD values
# Method: as §1, §2, §3
row,KD ratio,Binder
1,419 fold (KD of GpH7-Kn033/GpH7-Hl033/GpL16-k0 divided by KD of this antibody),B1
2,1110 fold (KD of GpH7-Kn033/GpH7-Hl033/GpL16-k0 divided by KD of this antibody),B2
3,985 fold (KD of GpH7-Kn033/GpH7-Hl033/GpL16-k0 divided by KD of this antibody),B3

# Target: T7, FcγRIIIa type V extracellular domain …
# Test: SPR (Biacore T100), ratio of KD values
# Method: as §1, §2, §3
row,KD ratio,Binder
1,170 fold (KD of GpH7-Kn033/GpH7-Hl033/GpL16-k0 divided by KD of this antibody),B1
2,327 fold (KD of GpH7-Kn033/GpH7-Hl033/GpL16-k0 divided by KD of this antibody),B2
3,300 fold (KD of GpH7-Kn033/GpH7-Hl033/GpL16-k0 divided by KD of this antibody),B3

# Target: T8, FcγRIa extracellular domain with …
# Test: SPR (Biacore T100), ratio of KD values
# Method: as §1, §2, §3
row,KD ratio,Binder
1,3.7 fold (KD of GpH7-Kn033/GpH7-Hl033/GpL16-k0 divided by KD of this antibody),B1
2,2.9 fold (KD of GpH7-Kn033/GpH7-Hl033/GpL16-k0 divided by KD of this antibody),B2
3,3.7 fold (KD of GpH7-Kn033/GpH7-Hl033/GpL16-k0 divided by KD of this antibody),B3

# Target: T3, FcγRIIb extracellular domain with …
# Test: SPR (Biacore T100), ratio of KD values
# Method: as §1, §2, §3
row,KD ratio,Binder
1,34 fold (KD of GpH7-Kn033/GpH7-Hl033/GpL16-k0 divided by KD of this antibody),B1
2,14 fold (KD of GpH7-Kn033/GpH7-Hl033/GpL16-k0 divided by KD of this antibody),B2
3,15 fold (KD of GpH7-Kn033/GpH7-Hl033/GpL16-k0 divided by KD of this antibody),B3
